Test results from patent publication US20220288204A1, “DOSAGE AND ADMINISTRATION OF ANTI-ERBB3 (HER3) MONOCLONAL ANTIBODIES TO TREAT TUMORS ASSOCIATED WITH NEUREGULIN 1 (NRG1) GENE FUSIONS” (ELEVATION ONCOLOGY, INC., priority 2021, published 2022).

Experiments:
HBECp53 cells = experiment: AlamarBlue viability dose-response (growth inhibition); format: cell-based, human; conditions: 96 hours
Experimental: (§1) Expression of […] (FIG. 1A) or SLC3A2-NRG1 (FIG. 2B) fusions in MDA-MB-175-VII and LUAD-0061AS3 cells, respectively, was determined by RT-PCR. The HBECp53 (NRG1 fusion negative) and HBECp53-SLC3A2-NRG1 cells were used as negative and positive controls, respectively. […] Viability results represent the mean±SEM of 2-5 independent experiments in which each condition was assayed in triplicate determinations. Viability data were analyzed by nonlinear regression and the IC50 values for growth inhibition and the 95% confidence interval were determined with GraphPad Prism 8. […] Results represent the mean±SD for one experiment in which each condition was assayed in duplicate.
(§2) For the time-course experiments, cells were plated at a density of 5,000 (HCC-95) or 10,000 (all others) cells per well in 12-well tissue culture plates, and then treated 24 hours later (time 0) with the respective agents. […] Cells were trypsinized and counted at the relevant time-point shown on the graphs. For dose-response studies, cells were plated at a density of 7,500-10,000 cells in white clear-bottom 96-well plates in a volume of […] complete growth media and […] chemicals added at 10× concentration (to achieve 1× concentration) in a final volume of […]. After 96-hour incubation, […] AlamarBlue cell viability reagent was added to achieve a final concentration of 10%. AlamarBlue is a cell permeable […] dye that is reduced when it enters the mitochondria and emits fluorescence at a different wavelength (Gloeckner H, J. Immunol. Methods 2001; 252:131-8). Fluorescence was measured (excitation, 530 nm and emission, 585 nm) using a […] Spectramax M2 Fluorescence Plate Reader, as described previously (Somwar R, J. Biomol. Screen 2009; 14:1176-84). In each experiment, background fluorescence was determined in cells treated with […] of the 20S proteasome inhibitor, carfilzomib, which is toxic to most cells at high concentrations, and was subtracted from all values. There were 3-4 replicates of each condition. Relative IC50 values and 95% confidence interval values were determined by nonlinear regression analysis using GraphPad Prism 8 software using either a variable slope model or in cases where inhibition was only partial, a three-parameter fit was used. […] Each condition was assayed in triplicate in 2-5 independent experiments.
(§3) Cells expressing NRG1 fusions rely on activation of HER3 for growth and survival. […] The estimated IC50 values obtained for growth inhibition are determined.

LUAD-0061AS3 cells = experiment: as above; format: cell-based, human; conditions: 96 hours
Experimental: as §1, §2, §3

MCF-7 cells = experiment: as above; format: cell-based, human; conditions: 96 hours
Experimental: as §1, §2, §3

MDA-MB-175-VII cells = experiment: as above; format: cell-based, human; conditions: 96 hours
Experimental: as §1, §2, §3

[1] = system: NRG1-β1-stimulated MCF-7 cells; experiment: NRG1-β1-stimulated growth of MCF-7 cells; format: cell-based, human
Experimental: MCF-7 cells were treated with the indicated concentrations of NRG1-b1 for 10 minutes, and then cell extracts were prepared and subjected to Western blotting for the indicated phosphorylated (p) or total (t) proteins (FIG. 2A). […] Data were analyzed by nonlinear regression using GraphPad Prism 8. There were four replicates of each condition and data represent the mean±SD. […] Cells were counted on the days indicated on the graph. Results represent the mean±SD of duplicates of each condition in one representative experiment. MDA-MB-175-VII (FIG. 2D) and LUAD-0061AS3 (FIG. 2E) cells were treated with the indicated concentrations of inhibitors for 48 hours, and then caspase 3/7 enzymatic activity was measured in cell homogenates. Carfilzomib (20S proteasome inhibitor) was used as a positive control for apoptosis. […]
For the time-course experiments, cells were plated at a density of 5,000 (HCC-95) or 10,000 (all others) cells per well in 12-well tissue culture plates, and then treated 24 hours later (time 0) with the respective agents. […] Cells were trypsinized and counted at the relevant time-point shown on the graphs. […] AlamarBlue is a cell permeable […] dye that is reduced when it enters the mitochondria and emits fluorescence at a different wavelength (Gloeckner H, J. Immunol. Methods 2001; 252:131-8). […]

[2] = system: HER3 and AKT phosphorylation in H6c7-ATP1B1-NRG1 cells; experiment: Western blotting of HER3 and AKT phosphorylation; format: cell-based, human; conditions: serum-starved 24 hours
Text: (§4) H6C7-EV (empty vector) and H6C7-ATP1B1-NRG1 cells were profiled for activated intracellular kinases using phospho-proteomic arrays (FIG. 7A). H6C7-EV and H6C7 cells with the indicated NRG1 fusions were profiled for activated receptor tyrosine kinases (RTK) using phospho-RTK arrays (FIG. 7B). Quantitation of phosphorylated EGFR, HER2, and HER3 is shown (FIG. 7C). Western blot analysis of cell extracts from H6C7-EV and H6C7 cells expressing NRG1 fusions (FIGS. 7D-E). […] All cells were serum-started for 24 hours prior to experimentation.
(§5) Models of isogenic pancreatic cancer cells with NRG1 fusions by lentiviral-mediated cDNA expression of ATP1B1-NRG1 and SLC3A2-NRG1 fusions in immortalized human pancreatic ductal cells (H6c7) were developed. […] Western blotting analysis was used to evaluate protein phosphorylation and expression. The presence of NRG1 fusions was confirmed by reverse transcription polymerase chain reaction (RT-PCR) and next-generation sequencing (NGS).
(§6) There was no regression of afatinib-treated pancreatic PDX tumors. […] This was confirmed using a human-specific GAPH antibody.

[3] = system: HER3 and AKT phosphorylation in H6c7-SLC3A2-NRG1 cells; experiment: Western blotting of HER3 and AKT phosphorylation; format: cell-based, human; conditions: serum-starved 24 hours
Text: as §4, §5, §6

[4] = in vivo
Text: Patients are monitored during weekly dosing for a period of 28 days (i.e., throughout C1W1, C1W2, C1W3, and C1W4) for the occurrence of DLTs. […] The grading of AEs is based on the “common terminology criteria for adverse events” (CTCAE) version 5.0. Hematologic toxicity includes febrile neutropenia, neutropenic infection, grade 4 neutropenia >7 days, grade ≥3 thrombocytopenia for >7 days, grade ≥3 thrombocytopenia with clinically significant bleeding, grade 4 thrombocytopenia, and grade ≥3 anemia >7 days.
In the current study, 6 patients were treated in a safety run-in phase with an induction regimen consisting of a 3,000 mg loading dose followed by 2,000 mg weekly for 3 weeks. […] Enrollment continued under Induction Regimen 2 consisting of 3,000 mg once weekly for 4 weeks. The next 6 patients enrolled were treated with Induction Regimen 2.
Upon review, the next 6 patients enrolled and initiated treatment with Induction Regimen 2.
Upon review, all subsequently enrolled patients treated under Protocol Version 2.0 initiated treatment with Induction Regimen 2.

[5] = n=847 patients treated; cited from earlier work

B1: seribantumab: anti-ERBB3 (HER3) fully human monoclonal antibody; heavy and light chains SEQ ID NOs: 12 and 13 (antibody)
heavy: EVQLLESGGGLVQPGGSLRLSCAASGFTFSHYVMAWVRQAPGKGLEWVSSISSSGGWTLYADSVKGRFTISRDNSKNTLYLQMNSLRAEDTAVYYCTRGLKMATIFDYWGQGTLVTVSSASTKGPSVFPLAPCSRSTSESTAALGCLVKDYFPEPVTVSWNSGALTSGVHTFPAVLQSSGLYSLSSVVTVPSSNFGTQTYTCNVDHKPSNTKVDKTVERKCCVECPPCPAPPVAGPSVFLFPPKPKDTLMISRTPEVTCVVVDVSHEDPEVQFNWYVDGVEVHNAKTKPREEQFNSTFRVVSVLTVVHQDWLNGKEYKCKVSNKGLPAPIEKTISKTKGQPREPQVYTLPPSREEMTKNQVSLTCLVKGFYPSDIAVEWESNGQPENNYKTTPPMLDSDGSFFLYSKLTVDKSRWQQGNVFSCSVMHEALHNHYTQKSLSLSPGK
light: QSALTQPASVSGSPGQSITISCTGTSSDVGSYNVVSWYQQHPGKAPKLIIYEVSQRPSGVSNRFSGSKSGNTASLTISGLQTEDEADYYCCSYAGSSIFVIFGGGTKVTVLGQPKAAPSVTLFPPSSEELQANKATLVCLVSDFYPGAVTVAWKADGSPVKVGVETTKPSKQSNNKYAASSYLSLTPEQWKSHRSYSCRVTHEGSTVEKTVAPAECS
IC50 (HBECp53 cells; AlamarBlue): 203 µM
effect on growth (HBECp53 cells; no NRG1 fusion): minimal effect
IC50 (LUAD-0061AS3 cells; AlamarBlue): 1.4 µM
effect on growth (LUAD-0061AS3 cells; dose-response): reduced growth in a dose-dependent manner
IC50 (MCF-7 cells; AlamarBlue): 45.2 µM
effect on growth (MCF-7 cells; no NRG1 fusion): minimal effect
IC50 (MDA-MB-175-VII cells; AlamarBlue): 0.02 µM
effect on growth (MDA-MB-175-VII cells; dose-response): reduced growth in a dose-dependent manner
NRG1-β1-stimulated growth, temporal study ([1]; pretreated 2 μmol/L seribantumab 1 hour, 10 ng/mL NRG1-β1, up to 10 days): prevented NRG1-β1-stimulated growth completely
growth (viability) of NRG1-β1-stimulated cells ([1]; seribantumab 0.125 μmol/L (lowest used), NRG1-β1 0-5 ng/mL, 96 hours): largely suppressed growth
HER3 and AKT phosphorylation [2]: dose-dependent inhibition
HER3 and AKT phosphorylation [3]: dose-dependent inhibition
TEAEs [4]: Grade 1 diarrhea, nausea, fatigue, rash and pruritis
grade of infusion related reactions [5]: Grade 1 or 2
patients experiencing an infusion related reaction [5]: < 1%
